Assay results reported in patent publication US20240277818A1, “COMPOSITION INCLUDING A METAL-ORGANIC FRAMEWORK (MOF) NANOPARTICLE FOR ORAL PROTEIN ADMINISTRATION” (UNIVERSITY OF NORTH TEXAS, priority 2023, published 2024).

Experiments:
[1] = In vivo fluorescence imaging and biodistribution of PCN-777 formulations; set-up: species or system mice; rats; details: 12 h after administration
Description: In vivo fluorescence imaging is undertaken. RITC-INS, RITC-INS@P, and R-I@F-P were orally administered to the overnight fasted diabetic mice or normal mice. The SI Imaging Amix imaging system was used to assess the distribution and metabolism of INS preparations in mice with different intestinal expressions of PCFT at different time points. Another group of diabetic mice or normal mice was sacrificed twelve hours after RITC-INS, RITC-INS@P, and R-I@F-P treatment, and the organs and intestines were collected and observed. The same procedure was done to diabetic rats. The intestine loops of the RITC-INS, RITC-INS@P, and R-I@F-P medicated rats were collected by the same procedure and frozen in Tissue-Tek OCT with liquid nitrogen. Intestinal sections were obtained using a cryostat and visualized by CLSM after staining with DAPI for 10 min.

[2] = In vivo fluorescence imaging and biodistribution of RITC-INS formulations (UiO-68-NH2); set-up: species or system mice; rats
Procedure: RITC-INS, RITC-INS@U, T@RITC-INS@U were orally administered to the overnight fasted mice for in vivo fluorescence imaging. The fluorescence images of mice were captured at different time points using the SI Imaging Amix imaging system to evaluate the metabolic process of INS preparations. Another group of mice was sacrificed after 4 h of treatment. The images of organs and intestines were also obtained. Different formulations were orally administered to the overnight fasted rats for 4 h. Then the rats were sacrificed, and the intestine loops were excised and frozen in Tissue-Tek OCT with liquid nitrogen. Cross intestine sections were obtained using a freezing microtome blade and then stained the intestine sections with DAPI for 10 min and visualized by CLSM.

[3] = system: Caco-2 cell monolayers with high or low expression of PCFT; test: Transepithelial transport, TEER and INS degradation, PCN-777 nanosystems; details: 48 h of incubation
Procedure: The transepithelial transport studies were conducted following previously reported procedures. In short, the Caco-2 cells were cultured in transwell inserts for 21 days till the TEER values reached above 300Ω×cm^2. Caco-2 cell monolayers with high or low expression of PCFT were co-incubated with Free INS and I@P and I@F-P on the apical side for 48 hours. An amount of 100 μL of the sample was taken out from the basolateral side at different time intervals and 100 μL of DMEM was always supplemented to maintain a consistent volume. After 48 hours of incubation, samples of the apical and basolateral layers were collected respectively, and the cell monolayer was lysed with RIPA lysate and collected. The INS contents in each sample were then tested utilizing the bovine insulin ELISA kit. The degradation rate of INS in different preparations were calculated according to the following equation:
where m(total) is the total mass of INS added, m(apical) is the mass of INS in the apical layer, m(basolateral) is the mass of INS in the basolateral layer, and m(inside) is the mass of INS in the cell monolayer.

blood glucose levels = test: In vivo pharmacodynamics of PCN-777 nanosystems in rats; set-up: species or system SD rats; details: diabetic rats
Procedure: Animal models and diabetes induction were undertaken. Male Sprague Dawley rats (180-200 g) and BALB/c mice (18-20 g) were provided by Beijing Vital River Laboratory Animal Technology Co. Ltd. New Zealand rabbits (2-2.5 kg) were provided in all the animal studies were conducted following the Chinese Regulations for the Administration of Affairs Concerning Experimental Animals and performed in compliance with the guidelines of the Institutional Animal Care and Use Committee (IACUC) of Wuhan University. To establish an alloxan-induced diabetic rat model, healthy rats were intravenously injected with alloxan 50 mg/kg once and the blood glucose changes were monitored daily to confirm their diabetic status. After seven days, the blood glucose was stable at 20 mmol/L, proving the diabetes model was successfully established. The difference between the establishment of diabetes models of mice and rabbits was that the dosage of alloxan in mice and rabbits is 100 mg/kg. […] INS bioactivity in vivo was undertaken. In vivo studies were performed in alloxan-induced diabetic rats (n=five per group) and rabbits (n=three per group). […] At predetermined time intervals, blood samples were collected for glucose testing using a blood glucose meter. Serum insulin level was determined using a bovine INS ELISA kit. […]

blood glucose level = test: In vivo pharmacodynamics, blood glucose after T@I@U, I@U and free INS; set-up: species or system alloxan-induced diabetic rats and mice
Procedure: In vivo INS bioactivity studies were performed in alloxan-induced diabetic animals (n=six per group). The rats and mice were induced to type I diabetes by alloxan injections. The animals were regarded as diabetic if their fasting blood glucose levels were higher than 11 mmol/L in one week after injection.

[4] = In vivo pharmacokinetics, serum INS (UiO-68-NH2 nanosystems)
Procedure: The rats and mice fasted overnight before experiments and then administered different samples by gavage. The […] effect was tested following the oral administration of I@U and T@I@U (20 IU/kg). As control groups, one group of rats were administered free INS (20 IU/kg) by oral gavage, and the other group was administered free INS (5 IU/kg) by s.c. injection. Blood samples were collected from the orbital venous plexus and analyzed using a blood glucose meter, expressed as the percentage of baseline serum glucose level (0 h) at different periods. The INS contents in blood samples were measured using the bovine INS ELISA kit. The 0 h INS content was subtracted from the INS measured at different time intervals and plotted.
Hypoglycemic effects (FIG. 7A, B) and insulin levels in the serum of SD rats (FIG. 7C) were tested after administration of equal amounts of insulin I @ U and T @ I @ U (20IU/kg) to diabetic mice (BALB/C mice) and rats (SD rats) by gavage. As a control group, one group of rats was administered insulin (20 IU/kg) by gavage, and the other group was administered insulin (5 IU/kg) by subcutaneous injection.

Caco-2 cell monolayers = test: Lysosomal degradation of INS in cell monolayers, UiO-68-NH2 nanosystems; type: cell-based, human; details: 2 h incubation
trypsin = test: Protection of INS from trypsin degradation by UiO-68-NH2 nanosystems; details: trypsin-containing HBSS buffer, 37 °C, 1 h
Procedure: To determine whether UiO-68-NH2 could protect INS from digestive enzymes, the NPs were incubated in simulated intestinal fluid containing trypsin (1 mg/mL) at 37° C. Aliquots (100 μL) at specific time intervals were taken out and added 200 μL of DMSO containing 0.1% trifluoroacetic acid to stop the enzymatic reaction. The concentration of INS was determined with the Elisa kit in all the following experiments.
Aliquots (100 μL) were removed at specified time intervals, 200 μL of DMSO containing 0.1% trifluoroacetic acid was added to stop the enzymatic reaction, and the concentration of insulin in the solution was determined using an Elisa kit.

[5] = in vivo; cited from earlier work

## insulin [free INS]
[1]
  fluorescence in intestine epithelial tissue sections: only weak fluorescence
[2]; 4 h after oral administration
  INS fluorescence in major organs / liver: does not show any fluorescence signal
[2]; confocal imaging, 2 h after administration
  INS fluorescence in sectioned intestine epithelial tissue: barely any fluorescence
[3]
  degradation of ingested INS: almost completely degrades
Blood glucose levels; oral administration
  glucose response: fail to generate a significant glucose response
Blood glucose levels; subcutaneous injection
  time to restoration of high blood glucose levels: ≤ 4 h
Blood glucose level; oral gavage, 20 IU/kg
  blood glucose response: fails to reduce the blood glucose level
Blood glucose level; subcutaneous 5 IU/kg
  time after which hypoglycemic effect wears off: 4 h
Blood glucose level; subcutaneous 5 IU/kg, at 2 h
  blood glucose level, % of the initial level: about 28%
[4]; oral 20 IU/kg versus s.c. free INS 5 IU/kg
  relative (oral) bioavailability: 0.7%
[4]; subcutaneous 5 IU/kg
  time of maximum serum INS level: ≤ 1 h
  time of return of serum INS to minimum: 4 h
Caco-2 cell monolayers
  ingested INS degraded: about 50%
trypsin
  active INS remaining: almost completely degraded

## regular insulin: regular insulin (INS) as used by injection in diabetics
[5]
  duration of action: 4 to 8 h
